# Source: patent US20260274993A1
# Columns and labels:
# [1] = biological target: VH4-34 endogenously expressed by cell line GA-10; test: flow cytometry, EC50 of % parent (APC), GA-10 cells endogenously expressing VH4-34; curve in FIG. 5A rises to about 66 % at Log M about -7.2 without a plateau
# [2] = biological target: VH4-34 endogenously expressed by cell line HBL-1; test: flow cytometry, EC50 of % parent (APC), HBL-1 cells endogenously expressing VH4-34; curve in FIG. 5A rises to about 57 % at Log M about -7.2 without a plateau
binder,measurement,setting,value
"D011-1E11-5T2.IgG2a (antibody, V domains shown) VH: QVQLVQSGAEVKKPGASMKVSCKASGYSFTGSTMNWVRQAPGQGLEWMGWINPYNGGTNYAQKFQGRVTMTRDTSISTAYMELSRLRSDDTAVYYCASRGKNGYDGRDFDCWGQGTLVTVSS VL: EIVLTQSPATLSLSPGERATLSCKSTKSLLNSGGFSYLDWYQQKPGQAPRLLIYLVSNRFTGIPARFSGSGSGTDFTLTISSLEPEDFAVYYCFQSNYFPFTFGQGTKLEIKR",EC50,[1],1.52 nM
same,EC50,[2],240 nM
